In paper PMC12145271, “A Lrp/AsnC Family Transcriptional Regulator Lrp Is Essential for the Pathogenicity of Dickeya oryzae”:

T1: Lrp (Dickeya oryzae EC1, UniProt A0AB39ITC9 1-164)
T1 sequence: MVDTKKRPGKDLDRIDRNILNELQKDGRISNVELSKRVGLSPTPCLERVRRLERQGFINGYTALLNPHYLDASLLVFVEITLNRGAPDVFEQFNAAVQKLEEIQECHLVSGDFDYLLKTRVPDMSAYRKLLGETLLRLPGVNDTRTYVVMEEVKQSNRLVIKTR

B1: PzmsA(24) (dsDNA)
DNA 1: GTGTAATTATGGGCGTGCTCCGGG
DNA 2: CCCGGAGCACGCCCATAATTACAC
B2: PzmsA(24)PM (dsDNA)
DNA 1: GTGTGAAAAGAGTGAGAGACCACG
DNA 2: CGTGGTCTCTCACTCTTTTCACAC

Assays:
Lrp [1] = target: T1, Lrp; assay: EMSA; 1 uM Lrp, 20 fmol probe; settings: protein: recombinant; tags: GST tag removed with PreScission protease (pGEX-6P-1, BamHI/EcoRI-site primers; N-terminal vector residues may remain); chain copies: 2; label: biotin
Lrp [2] = target: T1, Lrp; assay: EMSA; settings: protein: recombinant; tags: GST tag removed with PreScission protease (pGEX-6P-1, BamHI/EcoRI-site primers; N-terminal vector residues may remain); chain copies: 2

| Binder | binding result (Lrp [1]) | binding result (Lrp [2]) |
| --- | --- | --- |
| B1 | binds | – |
| B2 | – | no binding |
